Experimental data as given in patent US20030175278A1 (published 2003).

Target: T1, PS2-COOH terminus Y2H bait (PS2 COOH-terminal 39 amino acids, K410-I448) (human)
T1 construct: also called PS2-COOH-terminal bait; not shown: the LexA fusion partner of the bait and any linker
Experiment: Y2H β-galactosidase liquid culture assay (ONPG)
Method: The yeast two-hybrid (Y2H) procedure that utilizes the LexA/transactivation system was performed, as described previously (Stabler, et al. 1999). The PS2 COOH-terminal 39-amino acids (residues […]) (see FIG. 1a and FIG. b) were used as bait to screen a human fetal brain cDNA library. Out of 10⁷ primary yeast transformants, 50 clones were selected for further analysis based on growth in the absence of leucine and a substantial blue color change when grown on 5-bromo-4-chloro-3-indolyl-β-D-galactopyranoside (X-gal) plates. False positives were subsequently eliminated based on their interactions with negative-control baits, such as LexA alone, nuclear lamin B, and CENP-C centromere protein. Plasmid DNAs were isolated from clones that fulfilled the above requirements, and the DNA sequences of their inserts were determined and compared with the GenBank/EMBL/DDBJ databases using the BLAST search program. […] Interaction of ubiquilin proteins with various PS1 and PS2 baits were quantified in liquid culture assays by the enzymatic conversion of o-nitrophenyl-β-D-galactopyranoside (ONPG) to o-nitrophenol and D-galactose by β-galactosidase enzyme encoded by an Y2H reporter plasmid.
Interaction between ubiquilin and the presenilins was quantified in Y2H β-galactosidase liquid culture assays. […]

T1 sequence (chain, as listed by the source limits assumed): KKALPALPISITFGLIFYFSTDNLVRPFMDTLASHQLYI

B1: ubiquilin-prey clone (FIG. 2 III, construct B without GST), Q378-S595 (other, not shown: large carriers)
chain: QSLLQQITENPQLMQNMLSAPYMRSMMQSLSQNPDLAAQMMLNNPLFAGNPQLQEQMRQQLPTFLQQMQNPDTLSAMSNPRAMQALLQIQQGLQTLATEAPGLIPGFTPGLGALGSTGGSSGTNGSNATPSENTSPTAGTTEPGHQQFIQQMLQALAGVNPQLQNPEVRFQQQLEQLSAMGFLNREANLQALIATGGDINAAIERLLGSQHHSSISVS
notes: also called partial ubiquilin clone (encoding the COOH-terminal 218 residues)
In the case of B1, the “fold β-galactosidase activity compared with negative-control baits” value is reported as greater than 55 fold.

B2: near full-length ubiquilin-prey clone (FIG. 2 III, construct H without GST), M37-S595 (other, not shown: large carriers)
chain: MKVTVKTPKEKEEFAVPENSSVQQFKEEISKRFKSHTDQLVLIFAGKILKDQDTLSQHGIHDGLTVHLVIKTQNRPQDHSAQQTNTAGTNVTTSSTPNSNSTSGSATSNPFGLGGLGGLAGLSSLGLNTTNFSELQSQMQRQLLSNPEMMVQIMENPFVQSMLSNPDLMRQLIMANPQMQQLIQRNPEISHMLNNPDIMRQTLELARNPAMMQEMMRNQDRALSNLESIPGGYNALRRMYTDIQEPMLSAAQEQFGGNPFASLVSNTSSGEGSQPSRTENRDPLPNPWAPQTSQSSSASSGTASTVGGTTGSTASGTSGQSTTAPNLVPGVGASMFNTPGMQSLLQQITENPQLMQNMLSAPYMRSMMQSLSQNPDLAAQMMLNNPLFAGNPQLQEQMRQQLPTFLQQMQNPDTLSAMSNPRAMQALLQIQQGLQTLATEAPGLIPGFTPGLGALGSTGGSSGTNGSNATPSENTSPTAGTTEPGHQQFIQQMLQALAGVNPQLQNPEVRFQQQLEQLSAMGFLNREANLQALIATGGDINAAIERLLGSQHHSSISVS
notes: also called near full-length clone (encoding residues 37-595); the longer ubiquilin clone
With B2 the “fold β-galactosidase activity compared with negative-control baits” value was greater than 55 fold.
